T1: S100A9 subunit (human, UniProt P06702 1-114)
T1 construct: Captured with anti-S100A9 from lysate of cells that also express S100A8, so it probably stood in the complex; also called MRP14; calgranulin B
T1 sequence (looked up): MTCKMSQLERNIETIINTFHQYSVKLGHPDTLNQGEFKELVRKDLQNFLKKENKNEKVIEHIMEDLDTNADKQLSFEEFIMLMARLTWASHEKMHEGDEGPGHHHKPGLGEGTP

T2: Chk1 (human, UniProt O14757 1-476)
T2 construct: also called checkpoint kinase Chk1; p-Chk1 (Ser345)
T2 sequence (looked up): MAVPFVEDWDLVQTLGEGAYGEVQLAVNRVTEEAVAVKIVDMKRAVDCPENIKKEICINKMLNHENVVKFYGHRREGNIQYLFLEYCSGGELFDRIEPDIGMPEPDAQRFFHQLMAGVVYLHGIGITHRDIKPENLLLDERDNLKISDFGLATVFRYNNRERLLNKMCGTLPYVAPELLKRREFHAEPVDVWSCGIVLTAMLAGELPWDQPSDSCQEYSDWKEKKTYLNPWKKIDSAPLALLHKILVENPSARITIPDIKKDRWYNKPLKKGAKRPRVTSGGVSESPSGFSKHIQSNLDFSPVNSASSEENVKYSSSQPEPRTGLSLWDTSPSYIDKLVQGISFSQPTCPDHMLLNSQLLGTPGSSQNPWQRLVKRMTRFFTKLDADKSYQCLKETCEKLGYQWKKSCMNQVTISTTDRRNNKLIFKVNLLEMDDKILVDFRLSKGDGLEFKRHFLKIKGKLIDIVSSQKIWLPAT


How the values were obtained:
[1] = target: T1, S100A9 subunit; assay: immunofluorescence of mRNA-transfected KB cells with the heterodimer-specific antibody 27E10
Procedure: After CAMP, S100A8/S100A9 mRNA transfection for 16 hours, cells were fixed with 4% paraformaldehyde for 10 minutes, washed with PBS (pH 7.4), and then permeabilized with 0.25% Triton X-100 for 10 minutes. After blocking one hour with 1% BSA in PBS/0.1% Tween 20 and rinsing 3× with PBS, cells were incubated with mouse anti-calprotectin (mAb 27E10, sc-33714, Santa Cruz Biotechnolology, Inc., Santa Cruz, Calif.) or mouse anti-LL37 (sc-166770, Santa Cruz Biotechnolology, Inc., Santa Cruz, Calif.) for one hour, followed by Alexa Fluor 568-conjugated goat anti-mouse IgG or Alexa Fluor 488-conjugated goat anti-rabbit IgG (Life Technologies Corp., Carlsbad, Calif.) for one hour. For EGFP mRNA transfection, no antibody incubation was needed. Nuclei were stained with DAPI. Fluorescence images were captured using an epifluorescence microscope system. A8-IRES-A9 and A8-nIRES-A9 mRNA transfection for 40 hours were also performed.

[2] = target: T2, Chk1; assay: co-immunoprecipitation from cell lysate

binding result [1] | binding result [2] | Binder
binds |  | S100A8 (other, human, UniProt P05109 1-93, looked up, Expressed in KB cells from transfected mRNA; also called MRP8; calgranulin A) MLTELEKALNSIIDVYHKYSLIKGNFHAVYRDDLKKLLETECPQYIRKKGADVWFKELDINTDGAVNFQEFLILVIKMGVAAHKKSHEESHKE
 | no binding | S100A8/A9 protein complex (calprotectin; S100A8 complexed with S100A9) (other, human, Cytosolic complex in lysates of stably transfected KB-S100A8/A9 cells (co-immunoprecipitation), or in mRNA-transfected KB cells (immunofluorescence); also called S100A8/S100A9 heterodimer; MRP8/14) chain 1: MLTELEKALNSIIDVYHKYSLIKGNFHAVYRDDLKKLLETECPQYIRKKGADVWFKELDINTDGAVNFQEFLILVIKMGVAAHKKSHEESHKE chain 2: MTCKMSQLERNIETIINTFHQYSVKLGHPDTLNQGEFKELVRKDLQNFLKKENKNEKVIEHIMEDLDTNADKQLSFEEFIMLMARLTWASHEKMHEGDEGPGHHHKPGLGEGTP
